In patent US20100196265A1 (University of California, published 2010):

Legend:
[1] = target: T1, HER3 extracellular domain (UniProt P21860 20-643, limits assumed); experiment: surface plasmon resonance (BIAcore), HER3 extracellular domain on the chip, ALM injected; concentrations not given
T1 construct: extracellular domain; also called ErbB3

[2] = target: T2, HER2/neu extracellular domain (UniProt P04626 23-652, limits assumed); experiment: surface plasmon resonance (BIAcore), HER2/neu extracellular domain on the chip, ALM injected; concentrations not given
T2 construct: extracellular domain; also called ErbB2

T1 sequence (P21860 20-643 limits assumed): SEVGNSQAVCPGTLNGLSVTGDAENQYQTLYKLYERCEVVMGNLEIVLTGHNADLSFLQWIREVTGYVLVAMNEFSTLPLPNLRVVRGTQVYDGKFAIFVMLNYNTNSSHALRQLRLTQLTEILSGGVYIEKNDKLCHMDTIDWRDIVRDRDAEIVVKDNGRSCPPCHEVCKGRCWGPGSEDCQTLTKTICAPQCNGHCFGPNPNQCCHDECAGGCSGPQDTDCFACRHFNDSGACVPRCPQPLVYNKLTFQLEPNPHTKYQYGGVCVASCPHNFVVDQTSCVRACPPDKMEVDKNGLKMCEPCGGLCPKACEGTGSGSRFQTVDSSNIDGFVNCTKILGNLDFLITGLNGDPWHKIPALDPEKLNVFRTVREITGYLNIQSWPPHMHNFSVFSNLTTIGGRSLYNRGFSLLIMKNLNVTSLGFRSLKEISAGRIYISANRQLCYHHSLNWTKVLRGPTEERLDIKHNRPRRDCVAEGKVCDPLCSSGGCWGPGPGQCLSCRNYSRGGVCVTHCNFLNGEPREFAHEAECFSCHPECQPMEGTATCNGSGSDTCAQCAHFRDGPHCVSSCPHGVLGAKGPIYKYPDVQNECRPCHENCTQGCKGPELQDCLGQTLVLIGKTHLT

B1: ALM (A5-ML3.9) bispecific scFv (bispecific antibody)
scFv: AMAQVQLVQSGGGLVKPGGSLRLSCAASGFSFNTYDMNWVRQAPGKGLEWVSSISSSSSYIYYADSVKGRFTISRDNAKNSLYLQMNSLRAEDTAVYYCARDGVATTPFDYWGQGTLVTVSSGGGGSGGGGSGGGGSQSVLTQPPSVSGAPGQRVTISCTGSSSNIGAGYDVHWYQQLPGTAPKLLIYGNSNRPSGVPDRFSGSKSGTSASLAITGLQAEDEADYYCQSYDSSLSALFGGGTKLTVLGNSGAGTSGSGASGEGSGSKLQVQLVQSGAEVKKPGESLKISCKGSGYSFTSYWIAWVRQMPGKGLEYMGLIYPGDSDTKYSPSFQGQVTISVDKSVSTAYLQWSSLKPSDSAVYFCARHDVGYCSSSNCAKWPEYFQHWGQGTLVTVSSGGGGSGGGGSGGGGSQSVLTQPPSVSAAPGQKVTISCSGSSSNIGNNYVSWYQQLPGTAPKLLIYDHTNRPAGVPDRFSGSKSGTSASLAISGFRSEDEADYYCASWDYTLSGWVFGGGTKLTVLGLEHHHHHH
notes: Expressed in E. coli TG1 from pUC/ALM and purified by IMAC and size exclusion; also called A5/Linker/ML3.9 bs-scFv; ALM proteins
Does B1 bind [1]?
Result: binds

Does B1 bind [2]?
Result: binds
